Assay results published in patent US20220177587A1, “METHODS AND USES OF VARIANT CD80 FUSION PROTEINS AND RELATED CONSTRUCTS” (Alpine Immune Sciences, Inc., priority 2018, published 2022).
Read-outs that look alike come from different tables or passages of the source.

What was measured:
CD28 [1] = molecular target: T1, CD28 (Homo sapiens, UniProt P10747); test: Flow binding to Jurkat/IL2 reporter cells (CD28); parameters: host or cells: Jurkat cells expressing an IL-2-luciferase reporter; details: for CD28 Fold change to WT CD80: MFI at 33.3 nM relative to CD80 WT IgV-Fc
Method: (§1) Binding of selected immunomodulatory fusion proteins to cognate binding partners was assessed. […] Cells were sorted in a Bio-Rad S3 Cell Sorter (Bio-Rad Corp., USA) to >98% purity. Jurkat/IL2 reporter cells, which endogenously express CD28, were used to detect binding to CD28.
(§2) For staining and analysis by flow cytometry, 100,000 cells of appropriate transfected cells were plated in 96-well round bottom plates. Cells were spun down and resuspended in staining buffer (phosphate buffered saline (PBS), 1% bovine serum albumin (BSA), and 0.1% sodium azide) for 20 minutes to block non-specific binding. […] Primary staining was performed on ice for 45 minutes, before washing cells in staining buffer twice. Phycoerythrin (PE)-conjugated anti-human Fc (Jackson ImmunoResearch, USA) was diluted 1:150, added to cells and incubated another 30 minutes on ice. Cells were then washed twice with 150 μL/well stain buffer, fixed in 2% formaldehyde/PBS, and analyzed on Intellicyt flow cytometer (Intellicyt Corp., USA). PE Mean Fluorescence Intensity (MFI) was calculated for each cell type with FlowJo Version 10 software (FlowJo LLC, USA).
(§3) Binding assays were carried out to assess the specificity and affinity of multivalent proteins to cell-expressed CTLA-4, CD28, and PD-L1 counter structures.
(§4) The EC50 for binding also was determined.

CD28 [2] = molecular target: T1, CD28; test: Jurkat/IL2 + CHO/OKT3 +/- PD-L1 reporter assay: PD-L1-dependent CD28 costimulation; assay type: cell-based; parameters: host or cells: Jurkat cells expressing an IL-2-luciferase reporter; details: Table E22, Jurkat/IL2 + CHO/OKT3/PD-L1; for Fold Increase over WT CD80-IgV-Fe: 5.0 nM
Method: Jurkat cells were then plated at 50 μL/well for a total of 100,000 cells per well.
To each well, 25 μL of test protein was added to the Jurkat cells. […] The Jurkat cells with test or control proteins were incubated for 15 minutes at room temperature. CHO-derived artificial antigen presenting cells (aAPC) displaying transduced cell surface anti-CD3 single chain Fv (OKT3) (i.e., no PD-L1), or OKT3 and PD-L1 (i.e., +PD-L1), were brought to 0.8×10^6 cells/mL, and 25 μL of cells were added to each well, bringing the final volume of each well to 100 μL. […] Jurkat cells and CHO cells were incubated for 5 hours at 37 degrees Celsius in a humidified 5% CO2 incubation chamber. Plates were then removed from the incubator and acclimated to room temperature for 15 minutes. 100 μL of a cell lysis and luciferase substrate solution (BioGlo luciferase reagent, Promega) were added to each well and the plates were incubated on an orbital shaker for 10 minutes. Luminescence was measured with a 1 second per well integration time using a BioTek Cytation luminometer, and a relative luminescence value (RLU) was determined for each test sample.

huCTLA4 = huCTLA4 (Homo sapiens, UniProt P16410); test: Flow binding to CHO cells stably expressing CTLA4; parameters: huCTLA4 and huPD-L1, full-length mammalian surface expression constructs were generated; expressed in transfected cells; host or cells: CHO cells, lentiviral transduction, sorted to >98% purity; details: for CTLA4 MFI at 33.3 nM: CHO cells stably expressing CTLA4; for CTLA4 Fold change to WT CD80: MFI at 33.3 nM relative to CD80 WT IgV-Fc
Method: as §1, §2, §3, §4

huPD-L1 = huPD-L1 (Homo sapiens, UniProt Q9NZQ7); test: Flow binding to CHO cells stably expressing PD-L1; parameters: huCTLA4 and huPD-L1, full-length mammalian surface expression constructs were generated; expressed in transfected cells; host or cells: CHO cells, lentiviral transduction, sorted to >98% purity; details: for PD-L1 Fold change to WT CD80: MFI at 33.3 nM relative to CD80 WT IgV-Fc; for Ratio of PDL1:CD28: ratio of MFI at 33.3 nM
Method: as §1, §2, §3, §4

[3] = Table E20, Jurkats (CD28), 33.3 nM
[4] = Table E20, CHO cells stably expressing PD-L1, 33.3 nM
[5] = Table E19, CHO cells stably expressing PD-L1, 33.3 nM
[6] = Table E10, 33.3 nM, Jurkats (CD28)
[7] = Table E10, 33.3 nM, CHO cells stably expressing PD-L1
[8] = Table E23, CD80 IgV-Fc (inert) at 33.3 nM, Jurkat (CD28)
[9] = Table E23, CD80 IgV-Fc (inert) at 33.3 nM, CHO cells stably expressing PD-L1
[10] = Table E23, CD80 IgV-Fc (inert) at 33.3 nM
[11] = Table E25, linker variants, 33.3 nM, Jurkats (CD28)
[12] = Table E25, linker variants, 33.3 nM, CHO cells stably expressing PD-L1

Sequence of huPD-L1 (Q9NZQ7 19-290): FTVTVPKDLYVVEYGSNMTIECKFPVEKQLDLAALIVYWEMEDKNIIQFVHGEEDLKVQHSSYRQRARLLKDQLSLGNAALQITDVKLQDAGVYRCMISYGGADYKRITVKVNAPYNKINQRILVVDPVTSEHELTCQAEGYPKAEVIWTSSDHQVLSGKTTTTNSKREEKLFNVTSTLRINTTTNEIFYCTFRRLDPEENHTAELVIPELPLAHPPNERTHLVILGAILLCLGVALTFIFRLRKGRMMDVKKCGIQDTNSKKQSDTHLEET
Sequence of huCTLA4 (P16410 36-223): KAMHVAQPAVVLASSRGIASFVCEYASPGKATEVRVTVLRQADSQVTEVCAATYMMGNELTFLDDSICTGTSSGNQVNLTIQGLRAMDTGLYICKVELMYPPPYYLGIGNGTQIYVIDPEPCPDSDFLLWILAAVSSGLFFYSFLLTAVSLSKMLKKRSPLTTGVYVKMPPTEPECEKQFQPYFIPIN

| Substance | CD28 MFI at 33.3 nM (CD28 [1]; [3]) | Relative Luciferase Units (RLU), CD80 Conc 5.0 nM (CD28 [2]) | CTLA4 MFI at 33.3 nM (huCTLA4; Table E20, 33.3 nM) | PD-L1 MFI at 33.3 nM (huPD-L1; [4]) | also measured |
| --- | --- | --- | --- | --- | --- |
| CD80 (E88D/K89R/D90K/A91G/F92Y/K93R) ECD-Fc: variant full CD80 ECD fused to effector human IgG1 Fc (SEQ ID NO:1527) | – | – | – | – | Jurkat/CD28 MFI at 66.7 nM (CD28 [1]; 66.7 nM): 4049; EC50 (CD28 [1]; flow binding, read-out: Jurkat/CD28 EC50): > 0.2 µM |
| H18Y/A26E/V68M/A71G/D90G | 2683 | 974 RLU | 18305 | 27872 | CD28 Fold change to WT CD80 (CD28 [1]; Table E20): 61.1 fold; Fold Increase over WT CD80-IgV-Fe (CD28 [2]): 2.50 fold; CTLA4 Fold change to WT CD80 (huCTLA4; Table E20): 13.5 fold; PD-L1 Fold change to WT CD80 (huPD-L1; Table E20): 639.3 fold; Ratio of PDL1:CD28 (huPD-L1; Table E20): 10.4 |
| A26E/E35D/M47L/V68M/D90G | – | – | 26698 | – | – |
| H18Y/A26E/E35D/M47L/V68M | – | 895 RLU | 20015 | 24683 | – |
| H18Y/A26E/E35D/V68M/A71G | 394 | 961 RLU | 19394 | 27476 | CD28 Fold change to WT CD80 (CD28 [1]; Table E20): 9.0 fold; Fold Increase over WT CD80-IgV-Fe (CD28 [2]): 2.46 fold; CTLA4 Fold change to WT CD80 (huCTLA4; Table E20): 14.3 fold; PD-L1 Fold change to WT CD80 (huPD-L1; Table E20): 630.2 fold; Ratio of PDL1:CD28 (huPD-L1; Table E20): 69.7 |
| H18Y/E35D/M47L/A71G/D90G | – | 851 RLU | 22983 | 13327 | – |
| WT CD80 ECD-Fc (Abcam) | – | – | – | – | CD28 MFI at 33.3 nM (CD28 [1]; Table E19, Jurkats (CD28), 33.3 nM): 709; PD-L1 MFI at 33.3 nM (huPD-L1; [5]): 128 |
| Inert Fc | – | – | – | – | CD28 MFI at 33.3 nM (CD28 [1]; [6]): 23; CTLA4 MFI at 33.3 nM (huCTLA4; Table E10, 33.3 nM): 65.7; PD-L1 MFI at 33.3 nM (huPD-L1; [7]): 41 |
| H18Y/A26N/E35D/M47F/V68M/A71G/D90G | – | – | – | – | CD28 MFI at 33.3 nM (CD28 [1]; [8]): 82.2; PD-L1 MFI at 33.3 nM (huPD-L1; [9]): 26510 |
| CD80 WT ECD-Fc | – | – | – | – | CD28 MFI at 33.3 nM (CD28 [1]; [8]): 57.8; PD-L1 MFI at 33.3 nM (huPD-L1; [9]): 161 |
| H18Y/E35D/M47L/V68M/A71G/D90G | – | 1028 RLU | 19892 | 29944 | – |
| Fc Control | 15.4 | – | 37.9 | 77.1 | CD28 MFI at 33.3 nM (CD28 [1]; [8]): 81; CTLA4 MFI at 33.3 nM (huCTLA4; Table E19, 33.3 nM): 52; CTLA4 MFI at 33.3 nM (huCTLA4; [10]): 194; PD-L1 MFI at 33.3 nM (huPD-L1; [5]): 44; PD-L1 MFI at 33.3 nM (huPD-L1; [9]): 185 |
| H18Y/A26E/E35D/M47L/A71G/D90G | – | 1015 RLU | – | – | – |
| H18Y/A26E/E35D/M47L/V68M/A71G | – | 976 RLU | 25404 | 28546 | – |
| WT CD80 ECD-Fc H22.6 | – | – | – | – | CD28 MFI at 33.3 nM (CD28 [1]; [6]): 43; PD-L1 MFI at 33.3 nM (huPD-L1; [7]): 46.3 |
| H18Y/E35D/V68M/A71G/D90G | 2724 | 815 RLU | 24335 | – | – |
| E35D/M47L/V68M/A71G/D90G | 3072 | – | 26007 | 29377 | – |
| H18Y/M47L/V68M/A71G/D90G | – | 986 RLU | 22235 | – | – |
| WT CD80 ECD-Fc: wild-type CD80 ECD (SEQ ID NO:2)-Fc; R&D Systems where stated [reference compound] | 42.3 | – | – | 6377 | CD28 MFI at 33.3 nM (CD28 [1]; Table E3, 33.3 nM): 7627; CD28 MFI at 33.3 nM (CD28 [1]; Table E4, 33.3 nM, Jurkat cells (CD28)): 18035; CD28 MFI at 33.3 nM (CD28 [1]; Table E11, Jurkats (CD28), 33.3 nM): 31; CD28 MFI at 33.3 nM (CD28 [1]; Table E14, Jurkats (CD28), 33.3 nM): 30; CD28 MFI at 33.3 nM (CD28 [1]; Table E16, consensus variants, Jurkats (CD28), 33.3 nM): 46; CD28 MFI at 33.3 nM (CD28 [1]; [11]): 37; EC50 (CD28 [1]; Table E31, flow binding to Jurkats (CD28), read-out: CD28 EC50): 0.164 µM; PD-L1 MFI at 33.3 nM (huPD-L1; Table E3, 33.3 nM): 7943; PD-L1 MFI at 33.3 nM (huPD-L1; Table E4, 33.3 nM, CHO cells stably expressing PD-L1): 11871; PD-L1 MFI at 33.3 nM (huPD-L1; Table E11, CHO cells stably expressing PD-L1, 33.3 nM): 52; PD-L1 MFI at 33.3 nM (huPD-L1; Table E14, CHO cells stably expressing PD-L1, 33.3 nM): 68; PD-L1 MFI at 33.3 nM (huPD-L1; Table E16, consensus variants, CHO cells stably expressing PD-L1, 33.3 nM): 58; PD-L1 MFI at 33.3 nM (huPD-L1; [12]): 35; EC50 (huPD-L1; Table E31, flow binding to CHO cells stably expressing PD-L1): 0.0312 µM |
| A26E/E35D/M47L/A71G/D90G | – | 1132 RLU | 22127 | 14550 | – |
| H18Y/A26E/M47L/A71G/D90G | 2047 | 1036 RLU | 25420 | – | – |
| A26E/E35D/M47L/V68M/A71G | – | 1010 RLU | 24587 | 27806 | – |
| H18Y/A26E/M47L/V68M/A71G | 544 | – | 21742 | 29730 | – |
| H18V/A26R/E35D/M47L/V68M/A71G/D90G | – | – | – | – | CD28 MFI at 33.3 nM (CD28 [1]; [8]): 9620; CTLA4 MFI at 33.3 nM (huCTLA4; [10]): 23151; PD-L1 MFI at 33.3 nM (huPD-L1; [9]): 73166 |
| A26E/M47L/V68M/A71G/D90G | – | – | 21807 | 28139 | – |
| Inert Fc (control) | – | – | – | – | CD28 MFI at 33.3 nM (CD28 [1]; [11]): 20; CTLA4 MFI at 33.3 nM (huCTLA4; Table E25, linker variants, 33.3 nM): 40; PD-L1 MFI at 33.3 nM (huPD-L1; [12]): 58 |
| H18Y/E35D/M47L/V68M/D90G | 3389 | 852 RLU | – | 27410 | – |
